Where two headings read alike, the source gives them in different places.

Usually Kd stands for the free concentration of one partner at which half of the binding sites on the other are occupied at equilibrium, for simple one-to-one binding. Read a high Kd as weaker binding. One may read the koff as the rate constant with which the complex falls apart. As a reminder, the kon is a measure of how fast the partners come together. High values mean fast association, low ones slow association.

Assay [1] addresses T1, His-tagged human CTLA-4 (CT4-H5229; Acro Biosystems) (human, UniProt P16410 36-161).
T1 construct: bought soluble protein; also called soluble human CTLA-4; recombinant human CTLA-4; not shown: His tag
The experiment in a line: SPR (Carterra). How it is done: (§1) Then, goat anti-Human IgG Fc (Southern Biotech 2047-01) was coupled for 10 minutes at […] in 10 mM Sodim Acetate pH 4.5 (Carterra Inc.). The surface was then deactivated with 1 M ethanolamine pH 8.5 (Carterra Inc.). Running buffer used for the lawn immobilization was HBS-EPC (10 mM HEPES, 150 mM NaCl, 3 mM EDTA, 0.05% Tween 20, pH 7.4; Teknova).
(§2) The sensor chip was then transferred to a continuous flow microspotter (CFM; Carterra Inc.) for array capturing. The mAb supernatants were diluted 50-fold ([…] final concentration) into HBS-EPC with 1 mg/mL BSA. The samples were each captured twice with 15-minute and 4-minute capture steps on the first and second prints, respectively, to create multiple densities, using a […] flow rate. The running buffer in the CFM was also HBS-EPC.
(§3) Next, the sensor chip was loaded onto an SPR reader (MX-96 system; Ibis Technologies) for the kinetic analysis. CTLA-4 was injected at five increasing concentrations in a four-fold dilution series with concentrations of 1.95, 7.8, 31.25, 125, and 500 nM in running buffer (HBS-EPC with 1.0 mg/mL BSA). CTLA-4 injections were 5 minutes with a 15-minute dissociation at […] in a non-regenerative kinetic series. An injection of the goat anti-Human IgG Fc capture antibody at […] was injected at the end of the series to verify the capture level of each mAb. Binding data was double referenced by subtracting an interspot surface and a blank injection and analyzed for ka (on-rate), kd (off-rate), and KD (affinity) using the Kinetic Interaction Tool software (Carterra Inc.).

Assay [2] has as its target T1, His-tagged human CTLA-4 (CT4-H5229; …). The experiment in a line: SPR (Carterra). Here is the method:
as §1, §2, §3
This is another data set of the same source.

Assay [3] concerns the target T2, CD27 on CHO cells (UniProt P26842 20-260, limits assumed).
T2 construct: whole, on cells; also called CD27+ CHO cells; irrelevant antigen (CD27)
The experiment in a line: flow cytometry, 10 µg/mL mAb, geometric MFI. Here is the method:
(§4) Table 23. In vitro characterization of scFvs reformatted as full-length antibodies. kon, koff, and KD of the indicated CTLA-4 mAbs for soluble human CTLA-4 was determined by SPR (Carterra). Geometric MFI of the indicated CTLA-4 mAbs bound to CTLA-4⁺ or CD27⁺ CHO cells as detected by a secondary human IgG antibody and flow cytometry. Affinity (KD) of the indicated CTLA-4 mAbs for soluble cynomolgus CTLA-4 was determined by a single antigen concentration BLI measurement (Octet). […] Due to constraints on sample size in each Promega bioassay kit, this set of aCTLA-4 mAbs was analyzed using multiple plates (plate letters correspond to Plate A-D in FIG. 20D).
(§5) To determine if the CTLA-4 mAbs bound the appropriate antigen expressed on the surface of mammalian cells, CHO cell lines stably expressing human CTLA-4 or an irrelevant antigen (CD27) were generated. Cells (0.5×10⁶ each cell line) were combined and washed with MACS buffer (Dulbecco's Phosphate Buffered Saline [DPBS], with 0.5% bovine serum albumin [BSA], and 2 mM ethylenediaminetetraacetic acid [EDTA]). The cells were incubated with 10 μg/mL anti-CTLA-4 for 30 min at 4° C., then excess, unbound mAbs were removed by washing twice with MACS buffer. The cells were then stained with PE-conjugated anti-Human IgG Fc antibody (clone M1310G05, BioLegend 410720, San Diego, Calif., USA) to detect bound anti-CTLA-4 and with fluorescein isothiocyanate (FITC)-conjugated anti-CD27 (clone 0323, BioLegend 302806, San Diego, Calif., USA) to distinguish the cells expressing the irrelevant antigen. Cells were washed twice with MACS buffer, fixed with 4% paraformaldehyde fixation buffer (BioLegend 420801, San Diego, Calif., USA) for 20 minutes at room temperature and washed twice more with MACS buffer.

Assay [4] addresses T3, human CTLA-4 expressed on the cell surface (human, UniProt P16410 36-223).
T3 construct: CHO cells stably expressing human CTLA-4; also called hCTLA-4; CTLA-4+ CHO cells
Nature of the assay: flow cytometry, 10 µg/mL mAb, geometric MFI. How it is done: as §4, §5

The target in assay [5] is T2, CD27 on CHO cells. The experiment in a line: flow cytometry, mixed CTLA-4+ and CD27+ CHO cells. Here is the method:
To determine if the CTLA-4 mAbs bound the appropriate antigen expressed on the surface of mammalian cells, CHO cell lines stably expressing human CTLA-4 or an irrelevant antigen (CD27) were generated. Cells (0.5×10⁶ each cell line) were combined and washed with MACS buffer (Dulbecco's Phosphate Buffered Saline [DPBS], with 0.5% bovine serum albumin [BSA], and 2 mM ethylenediaminetetraacetic acid [EDTA]). The cells were incubated with 10 μg/mL anti-CTLA-4 for 30 min at 4° C., then excess, unbound mAbs were removed by washing twice with MACS buffer. The cells were then stained with PE-conjugated anti-Human IgG Fc antibody (clone M1310G05, BioLegend 410720, San Diego, Calif., USA) to detect bound anti-CTLA-4 and with fluorescein isothiocyanate (FITC)-conjugated anti-CD27 (clone 0323, BioLegend 302806, San Diego, Calif., USA) to distinguish the cells expressing the irrelevant antigen. Cells were washed twice with MACS buffer, fixed with 4% paraformaldehyde fixation buffer (BioLegend 420801, San Diego, Calif., USA) for 20 minutes at room temperature and washed twice more with MACS buffer. […] Binding of mAbs to CTLA-4 on the cell surface was determined using LSR II (BD Biosciences, San Jose, Calif., USA) or CytoFLEX LX (Beckman Coulter, Brea. Calif., USA) flow cytometers and analyzed using FlowJo (v10.6.1, BD Biosciences, San Jose, Calif., USA).

A further assay addresses mouse CTLA-4 (mouse, UniProt P09793 36-161, limits assumed). The experiment in a line: BLI (Octet). Here is the method: (§6) The binding specificity and affinity of each full-length antibody towards CTLA-4 were determined using biolayer interferometry (BLI) and/or surface plasmon resonance (SPR). Anti-cyno CTLA-4 and anti-mouse CTLA-4 affinities were tested using ForteBio (BLI). Anti-human CTLA-4 affinities were measured using Carterra (SPR).
(§7) For BLI, antibodies were loaded onto an Anti-Human IgG Fc (AHC) biosensor using the Octet Red96 system (ForteBio). Loaded biosensors were dipped into antigen dilutions beginning at 300 nM, with 6 serial dilutions at 1:3. Kinetic analysis was performed using a 1:1 binding model and global fitting.
In general terms: In BLI a coated tip is dipped into the sample, and binding shifts an interference pattern.

For assay [6], the target named is T3, human CTLA-4 expressed on the cell …. Nature of the assay: cell-based or functional assay.
Assay [7] addresses T4, His-tagged cynomolgus CTLA-4 (CT4-C5227; Acro Biosystems) (cynomolgus, UniProt G7PL88 36-161).
T4 construct: also called soluble cynomolgus CTLA-4; cyno CTLA-4
The experiment in a line: BLI (Octet). Here is the method: as §6, §7

T2 sequence (P26842 20-260 limits assumed): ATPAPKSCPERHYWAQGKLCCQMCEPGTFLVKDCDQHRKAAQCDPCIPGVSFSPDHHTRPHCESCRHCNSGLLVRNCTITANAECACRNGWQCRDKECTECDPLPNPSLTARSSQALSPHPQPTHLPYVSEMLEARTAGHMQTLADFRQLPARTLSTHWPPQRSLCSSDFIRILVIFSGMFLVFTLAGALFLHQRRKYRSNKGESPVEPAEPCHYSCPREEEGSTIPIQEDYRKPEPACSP
T4 sequence (G7PL88 entry or part of it limits assumed, form in doubt): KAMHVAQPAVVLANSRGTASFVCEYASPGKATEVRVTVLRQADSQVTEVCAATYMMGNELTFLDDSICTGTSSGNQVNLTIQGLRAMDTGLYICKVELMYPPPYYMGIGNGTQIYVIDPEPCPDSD
T3 sequence (P16410 36-223 limits assumed): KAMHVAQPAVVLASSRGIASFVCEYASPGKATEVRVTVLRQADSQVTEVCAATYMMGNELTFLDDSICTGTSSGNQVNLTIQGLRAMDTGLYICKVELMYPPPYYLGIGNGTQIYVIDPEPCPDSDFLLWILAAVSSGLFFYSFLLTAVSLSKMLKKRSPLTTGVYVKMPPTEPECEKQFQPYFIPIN
T1 sequence (P16410 36-161 limits assumed): as the sequence (G7PL88 entry or part of it limits assumed, form in doubt) above, with N14S, T18I, M106L counted along it
Sequence of mouse CTLA-4 (P09793 36-161 limits assumed): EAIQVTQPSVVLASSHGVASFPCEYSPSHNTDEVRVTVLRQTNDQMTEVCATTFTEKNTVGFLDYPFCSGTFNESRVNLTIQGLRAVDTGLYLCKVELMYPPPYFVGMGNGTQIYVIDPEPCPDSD

B1: antibody A21 (L21H21) (antibody, V domains shown)
VH: QVQLVESGGGVVQPGRSLRLSCAASGFTFSSYGMHWVRQAPGKGLEWVAVIWYDGNNKYYADSVKGRFTISRDNSKNTLYLHMNSLRADDTAVYYCARMLRGAPYYYGMDVWGQGTTVTVSS
VL: not shown
notes: also called aCTLA-4.10
In assay [1], B1 showed an equilibrium dissociation constant (Kd) of 31 nM. In assay [2], this molecule displayed an equilibrium dissociation constant (Kd) of 31 nM, a dissociation rate constant (koff) of 0.00055 s⁻¹ and an on-rate constant (kon) of 18000 M⁻¹ s⁻¹.

B2: antibody A14 (L14H14), GIGA-564 (antibody, V domains shown)
VH: QVQLVESGGGVVQPGRSLRLSCAASGFTFSSYGMHWVRQAPGTGLEWVAVIWYEGRNKYYADPVKGRFTISRDNSKNTLYLQMNSLRDDDTAVYYCARAGDLGAFDIWGQGTMVTVSSA
VL: not shown
notes: also called aCTLA-4.15
As to B2, the “MFI of CD27+ CHO cells” value with CD27 on CHO cells [3] was found to be 15.9. Further, the “MFI of CTLA-4+ CHO cells” value in assay [4] worked out at 717. Further, the binding result with CD27 on CHO cells [5] was “no binding (tested: 10 µg/mL)”.

B3: antibody A27 (L27H27) (antibody, V domains shown)
VH: QVQLVQSGAEVKKPGASVKVSCKASGYTFTSYGISWVRQAPGQGLEWMGWISAYNGNTNYAQKLQGRVTMTTDTSTSTAYMELRSLRSDDTAVYYCGRWVRGVEYWGQGTLVTVSS
VL: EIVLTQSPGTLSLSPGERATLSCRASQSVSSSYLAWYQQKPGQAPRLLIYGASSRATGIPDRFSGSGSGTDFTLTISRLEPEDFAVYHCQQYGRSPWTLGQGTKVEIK
notes: also called aCTLA-4.8
Molecule B3 yielded a Kd in assay [1] of 120 nM. Further, in assay [2], the Kd turned out to be 120 nM, the off-rate (koff) worked out at 0.0036 s⁻¹ and the kon is 31000 M⁻¹ s⁻¹.

B4: Ipilimumab analog (antibody, V domains shown)
VH: QVQLVESGGGVVQPGRSLRLSCAASGFTFSSYTMHWVRQAPGKGLEWVTFISYDGNNKYYADSVKGRFTISRDNSKNTLYLQMNSLRAEDTAIYYCARTGWLGPFDYWGQGTLVTVSS
VL: not shown
notes: also called ipi analog; in-house produced ipilimumab
For B4, the binding result with mouse CTLA-4 is recorded as “no binding (tested: 300 nM)”.

B5: antibody A17 (L17H17) (antibody, V domains shown)
VH: EVQLVESGGGLVQPGGSLRLSCAASGFTFSNYAMSWVRQAPGKGLEWVSAISGGGLSTYYADSVKGRFTISRDNSKNTLYLQMNSLRAEDTAVYYCAKDLLWLGFDYWGQGTLVTVSS
VL: DIQMTQSPSSLSASVGDRVTITCRASQAIRNDLGWYQQKPGKAPKRLIYAASSLQSGVPPRFSGSGSGTEFTLTISSLQPEDFATYYCLQHNSYPLTFGGGTKVEIK
notes: also called aCTLA-4.17
Take B5: in assay [6], the “Promega assay % inhibition” value amounted to 0%. In addition, the Kd in assay [1] was found to be 51 nM; in assay [2] it was 51 nM; in assay [7], 6.3 nM. Further, in assay [2], the koff worked out at 0.0034 s⁻¹. The molecule further gave a kon in assay [2] of 66000 M⁻¹ s⁻¹.

B6: antibody A26 (L26H26) (antibody, V domains shown)
VH: QVQLVQSGAEVKKPGASVKVSCKASDYTFTYYGISWVRQAPGQGLEWMGWISAYNGNTNYAQKLQGRVTMTTDTSTNTAYLELRSLRSDDTAVYYCARDYYDSSGYFDYWGQGTLVTVSS
VL: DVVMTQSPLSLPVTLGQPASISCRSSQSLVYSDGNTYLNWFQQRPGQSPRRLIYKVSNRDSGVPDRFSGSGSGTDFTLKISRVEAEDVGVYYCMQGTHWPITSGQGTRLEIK
notes: also called aCTLA-4.20
In assay [1], B6 showed a Kd of 74 nM. Also, in assay [2], the Kd was determined as 74 nM, the koff came to 0.00026 s⁻¹ and the on-rate constant (kon) was 3500 M⁻¹ s⁻¹.

B7: antibody A15 (L15H15) (antibody, V domains shown)
VH: QVQLVESGGGVVQPGRSLRLSCAASGFTFRSYGMHWVRQAPGKGLEWVAVIWYDGSNKHYADSVKGRFTISRDNSKNTLYLQMNSLRAEDTAVYYCARNGLIGAFDIWGQGTMVTVSS
VL: not shown
notes: also called aCTLA-4.18
As for B7, the “Promega assay % inhibition” value in assay [6] worked out at 0%. In addition, the Kd in assay [1] came to 10 nM; in assay [2], 10 nM; in assay [7], 2.6 nM. In assay [2], this molecule came in with a koff of 0.00073 s⁻¹. Also, the kon in assay [2] came to 70000 M⁻¹ s⁻¹.

B8: antibody A16 (L16H16) (antibody, V domains shown)
VH: QVQLVESGGGVVQPGRSLRLSCAASGFTFSSYGIHWVRQAPGKGLEWVAVIWYDGSNKYYADSVKGRFTISRDNSKNTLYLQMNSLRAEDTAVYYCARGSLLGPFDYWGQGTLVTVSS
VL: DIQMTQSPSSLSASVGDRVTITCRASQGISNYLAWYQQKPGKVPKLLIYAASTLQSGVPSRFSGSGSGTDFTLTISSLQPEDVATYYCQNYNSAPWTFGQGTKVEIK
notes: also called aCTLA-4.5
For the molecule B8, the “Promega assay % inhibition” value in assay [6] came out at 0%. For the same molecule, the Kd in assay [1] is 23 nM. In assay [2], the Kd came out at 23 nM, the koff is 0.00072 s⁻¹ and the kon came to 31000 M⁻¹ s⁻¹. In assay [7], this molecule gave a Kd of 2.8 nM.

B9: antibody A18 (L18H18) (antibody, V domains shown)
VH: QVQLVESGGGVVQPGRSLRLSCAASGFTFSSYGMHWVRQAPGKGLEWVAVIWYDGSNKFYADSVKGRFTISSDNSKNTLYLQMNSLRAEDTAVYYCARGGHLGSFDYWGQGTLVTVSS
VL: EIVLTQSPGTLSLSPGERATLSCRASQSVSYLAWYQQKPGQAPRLLIYGASSRATGIPDRFSGSGSGTDFTLTISRLEPEDFAVYYCQQYGSSPWTFGQGTKVEIK
notes: also called aCTLA-4.11
For the molecule B9, the “MFI of CD27+ CHO cells” value with CD27 on CHO cells [3] came to 14.8. Also, the binding result in the assay with CD27 on CHO cells [5] is on record as “no binding (tested: 10 µg/mL)”.

B10: antibody A12 (L12H12) (antibody, V domains shown)
VH: QVQLVESGGGVVQPGRSLRLSCAASGFTFSSYGMHWVRQAPGKGLEWVAVIWYDGSNKYYADSVKGRFTFSRDNSKNTLYLQMNSLRAEDTAVYYCARGGLMGAFDYWGQGTLVTVSS
VL: not shown
notes: also called aCTLA-4.12; CTLA4.A12
In the case of B10, the “MFI of CD27+ CHO cells” value with CD27 on CHO cells [3] was found to be 17.1. Also, the binding result with CD27 on CHO cells [5] is listed as “no binding (tested: 10 µg/mL)”.
